Results published in PMC5570423, “Structural characterisation of TNRC6A nuclear localisation signal in complex with importin-alpha” (PLoS ONE, 2017).

B1: GST-TNRC6A cNLS N-term mutant (1164Ser-Gly1165 substituted to prolines) (peptide)
chain: PPKKRRRER
notes: also called TNRC6A N-term mutant; source: E. coli BL21(DE3), purified
B2: GST-TNRC6A cNLS (residues 1164–1172 of mouse TNRC6A, corresponding to residues 1179–1187 of human TNRC6A isoform 1) (peptide)
chain: SGKKRRRER
notes: TNRC6A classical nuclear localisation signal, mouse residues 1164-1172 = human residues 1179-1187 (isoform 1; 926-934 in isoform 2); the motif is strictly conserved between mouse and human; Cloned into pGEX-6P with overlapping oligonucleotides; also called GST-cNLS; GST-NLS; source: E. coli BL21(DE3), purified
B3: GST-TNRC6A cNLS P3 mutant (Arg1168Lys) (peptide)
chain: SGKKKRRER
notes: also called P3 TNRC6A mutant; source: E. coli BL21(DE3), purified

What follows are binders tested against Mouse importin-α1 lacking the IBB domain (mImpα1ΔIBB; residues 70–529) (mouse, UniProt P52293 70-529) (assay: ELISA; solid phase plate binding assay, no cross-linking: MaxiSorp plates coated with 25 nM GST-cNLS or GST in PBS, 0.2 mM PMSF, 2 mM DTT; serial dilutions of S-tagged mImpα1ΔIBB, 1 hr at 4°C; detected with S-protein-HRP; apparent Kd, one-site specific binding, duplicates). Conditions: both partners purified.

Going from B1 to SGKKKRKER (source: E. coli BL21(DE3), purified) [GST-TNRC6A cNLS P3, P5 mutant (Arg1168Lys and Arg1170Lys)], the Kd rises from 19 nM to 898 nM (47-fold). The first binds more tightly here.

Going from SGKKRRKER (source: E. coli BL21(DE3), purified) [GST-TNRC6A cNLS P5 mutant (Arg1170 to Lys)] to B2, the Kd falls from 1140 nM to 75.6 nM (15-fold).

B3 was tested, and the Kd was 1880 nM.
